Target: the molecule itself
Assay: SEC; elution of purified point mutants compared with WT MtrR (Supplementary Figure S4); S200 column named in the purification

Protein | stoichiometry N
MtrR(W49F) (natural protein, Neisseria gonorrhoeae, MtrR of Neisseria gonorrhoeae, point mutant; Made by site-directed mutagenesis of the mtrR-pMCSG7 construct; source: expressed from the pMCSG7 vector, purified (Ni-NTA, TEV cleavage, Ni-NTA, S200 size exclusion); not shown: His6, N-terminal, cleaved) MRKTKTEALKTKEHLMLAALETFYRKGIARTSLNEIAQAAGVTRGALYFHFKNKEDLFDALFQRICDDIENCIAQDAADAEGGSWTVFRHTLLHFFERLQSNDIHYKFHNILFLKCEHTEQNAAVIAIARKHQAIWREKITAVLTEAVENQDLADDLDKETAVIFIKSTLDGLIWRWFSSGESFDLGKTAPRIIGIMMDNLENHPCLRRK | 2
MtrR(Y48F) (natural protein, Neisseria gonorrhoeae, MtrR of Neisseria gonorrhoeae, point mutant; Made by site-directed mutagenesis of the mtrR-pMCSG7 construct; source: expressed from the pMCSG7 vector, purified (Ni-NTA, TEV cleavage, Ni-NTA, S200 size exclusion); not shown: His6, N-terminal, cleaved) MRKTKTEALKTKEHLMLAALETFYRKGIARTSLNEIAQAAGVTRGALFWHFKNKEDLFDALFQRICDDIENCIAQDAADAEGGSWTVFRHTLLHFFERLQSNDIHYKFHNILFLKCEHTEQNAAVIAIARKHQAIWREKITAVLTEAVENQDLADDLDKETAVIFIKSTLDGLIWRWFSSGESFDLGKTAPRIIGIMMDNLENHPCLRRK | 2
MtrR(T43A) (natural protein, Neisseria gonorrhoeae, MtrR of Neisseria gonorrhoeae, point mutant; Made by site-directed mutagenesis of the mtrR-pMCSG7 construct; source: expressed from the pMCSG7 vector, purified (Ni-NTA, TEV cleavage, Ni-NTA, S200 size exclusion); not shown: His6, N-terminal, cleaved) MRKTKTEALKTKEHLMLAALETFYRKGIARTSLNEIAQAAGVARGALYWHFKNKEDLFDALFQRICDDIENCIAQDAADAEGGSWTVFRHTLLHFFERLQSNDIHYKFHNILFLKCEHTEQNAAVIAIARKHQAIWREKITAVLTEAVENQDLADDLDKETAVIFIKSTLDGLIWRWFSSGESFDLGKTAPRIIGIMMDNLENHPCLRRK | 2
MtrR(T43S) (natural protein, Neisseria gonorrhoeae, MtrR of Neisseria gonorrhoeae, point mutant; Made by site-directed mutagenesis of the mtrR-pMCSG7 construct; source: expressed from the pMCSG7 vector, purified (Ni-NTA, TEV cleavage, Ni-NTA, S200 size exclusion); not shown: His6, N-terminal, cleaved) MRKTKTEALKTKEHLMLAALETFYRKGIARTSLNEIAQAAGVSRGALYWHFKNKEDLFDALFQRICDDIENCIAQDAADAEGGSWTVFRHTLLHFFERLQSNDIHYKFHNILFLKCEHTEQNAAVIAIARKHQAIWREKITAVLTEAVENQDLADDLDKETAVIFIKSTLDGLIWRWFSSGESFDLGKTAPRIIGIMMDNLENHPCLRRK | 2
MtrR(T11A) (natural protein, Neisseria gonorrhoeae, MtrR of Neisseria gonorrhoeae, point mutant; Made by site-directed mutagenesis of the mtrR-pMCSG7 construct; source: expressed from the pMCSG7 vector, purified (Ni-NTA, TEV cleavage, Ni-NTA, S200 size exclusion); not shown: His6, N-terminal, cleaved) MRKTKTEALKAKEHLMLAALETFYRKGIARTSLNEIAQAAGVTRGALYWHFKNKEDLFDALFQRICDDIENCIAQDAADAEGGSWTVFRHTLLHFFERLQSNDIHYKFHNILFLKCEHTEQNAAVIAIARKHQAIWREKITAVLTEAVENQDLADDLDKETAVIFIKSTLDGLIWRWFSSGESFDLGKTAPRIIGIMMDNLENHPCLRRK | 2
MtrR(W49A) (natural protein, Neisseria gonorrhoeae, MtrR of Neisseria gonorrhoeae, point mutant; Made by site-directed mutagenesis of the mtrR-pMCSG7 construct; source: expressed from the pMCSG7 vector, purified (Ni-NTA, TEV cleavage, Ni-NTA, S200 size exclusion); not shown: His6, N-terminal, cleaved) MRKTKTEALKTKEHLMLAALETFYRKGIARTSLNEIAQAAGVTRGALYAHFKNKEDLFDALFQRICDDIENCIAQDAADAEGGSWTVFRHTLLHFFERLQSNDIHYKFHNILFLKCEHTEQNAAVIAIARKHQAIWREKITAVLTEAVENQDLADDLDKETAVIFIKSTLDGLIWRWFSSGESFDLGKTAPRIIGIMMDNLENHPCLRRK | 2
MtrR(G45A) (natural protein, Neisseria gonorrhoeae, MtrR of Neisseria gonorrhoeae, point mutant; Made by site-directed mutagenesis of the mtrR-pMCSG7 construct; source: expressed from the pMCSG7 vector, purified (Ni-NTA, TEV cleavage, Ni-NTA, S200 size exclusion); not shown: His6, N-terminal, cleaved) MRKTKTEALKTKEHLMLAALETFYRKGIARTSLNEIAQAAGVTRAALYWHFKNKEDLFDALFQRICDDIENCIAQDAADAEGGSWTVFRHTLLHFFERLQSNDIHYKFHNILFLKCEHTEQNAAVIAIARKHQAIWREKITAVLTEAVENQDLADDLDKETAVIFIKSTLDGLIWRWFSSGESFDLGKTAPRIIGIMMDNLENHPCLRRK | 2
MtrR wild type (natural protein, MtrR, TetR-family transcriptional repressor of Neisseria gonorrhoeae, product of the mtrR gene; also called WT MtrR; MtrR WT; source: expressed from the pMCSG7 vector, purified (Ni-NTA, TEV cleavage, Ni-NTA, S200 size exclusion); not shown: His6, N-terminal, cleaved) MRKTKTEALKTKEHLMLAALETFYRKGIARTSLNEIAQAAGVTRGALYWHFKNKEDLFDALFQRICDDIENCIAQDAADAEGGSWTVFRHTLLHFFERLQSNDIHYKFHNILFLKCEHTEQNAAVIAIARKHQAIWREKITAVLTEAVENQDLADDLDKETAVIFIKSTLDGLIWRWFSSGESFDLGKTAPRIIGIMMDNLENHPCLRRK | 2
MtrR(H50A) (natural protein, Neisseria gonorrhoeae, MtrR of Neisseria gonorrhoeae, point mutant; Made by site-directed mutagenesis of the mtrR-pMCSG7 construct; source: expressed from the pMCSG7 vector, purified (Ni-NTA, TEV cleavage, Ni-NTA, S200 size exclusion); not shown: His6, N-terminal, cleaved) MRKTKTEALKTKEHLMLAALETFYRKGIARTSLNEIAQAAGVTRGALYWAFKNKEDLFDALFQRICDDIENCIAQDAADAEGGSWTVFRHTLLHFFERLQSNDIHYKFHNILFLKCEHTEQNAAVIAIARKHQAIWREKITAVLTEAVENQDLADDLDKETAVIFIKSTLDGLIWRWFSSGESFDLGKTAPRIIGIMMDNLENHPCLRRK | 2
MtrR(R44A) (natural protein, Neisseria gonorrhoeae, MtrR of Neisseria gonorrhoeae, point mutant; Made by site-directed mutagenesis of the mtrR-pMCSG7 construct; source: expressed from the pMCSG7 vector, purified (Ni-NTA, TEV cleavage, Ni-NTA, S200 size exclusion); not shown: His6, N-terminal, cleaved) MRKTKTEALKTKEHLMLAALETFYRKGIARTSLNEIAQAAGVTAGALYWHFKNKEDLFDALFQRICDDIENCIAQDAADAEGGSWTVFRHTLLHFFERLQSNDIHYKFHNILFLKCEHTEQNAAVIAIARKHQAIWREKITAVLTEAVENQDLADDLDKETAVIFIKSTLDGLIWRWFSSGESFDLGKTAPRIIGIMMDNLENHPCLRRK | 2

Target: the molecule itself
Assay: crystal structure; MtrR dimer bound to a 21-mer operator oligoduplex (Semet-MtrR with rpoH, native MtrR with mtrCDE); hanging drop, 200 mM calcium acetate, 27% PEG 8000, 100 mM Tris pH 7.5

Protein | binding result
Selenomethionine-derivatized MtrR (natural protein, selenomethionine-derivatized, MtrR, TetR-family transcriptional repressor of Neisseria gonorrhoeae, product of the mtrR gene; Same construct as m1 with methionines as selenomethionine; also called Semet-MtrR; not shown: His6, N-terminal, cleaved) MRKTKTEALKTKEHLMLAALETFYRKGIARTSLNEIAQAAGVTRGALYWHFKNKEDLFDALFQRICDDIENCIAQDAADAEGGSWTVFRHTLLHFFERLQSNDIHYKFHNILFLKCEHTEQNAAVIAIARKHQAIWREKITAVLTEAVENQDLADDLDKETAVIFIKSTLDGLIWRWFSSGESFDLGKTAPRIIGIMMDNLENHPCLRRK | binds
